Publication PMC2878922 (2011)

Columns and labels:
CD47 ECD [1] = molecular target: CD47 ECD (Homo sapiens, UniProt Q08722); assay: flow cytometry saturation binding on CD47-coated beads
CD47 ECD [2] = molecular target: T1, CD47 ECD (Mus musculus, UniProt Q61735); assay: as above
T1 chain: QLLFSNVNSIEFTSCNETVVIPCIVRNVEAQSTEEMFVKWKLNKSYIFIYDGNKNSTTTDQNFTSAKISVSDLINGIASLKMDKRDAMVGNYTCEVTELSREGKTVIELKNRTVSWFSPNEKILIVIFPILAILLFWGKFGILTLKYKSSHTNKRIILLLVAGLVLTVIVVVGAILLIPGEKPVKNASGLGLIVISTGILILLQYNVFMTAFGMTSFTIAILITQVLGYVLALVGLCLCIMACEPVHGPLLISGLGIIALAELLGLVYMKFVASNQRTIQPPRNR

CD47 ECD (Homo sapiens, UniProt Q08722), sequence (Q08722 19-323): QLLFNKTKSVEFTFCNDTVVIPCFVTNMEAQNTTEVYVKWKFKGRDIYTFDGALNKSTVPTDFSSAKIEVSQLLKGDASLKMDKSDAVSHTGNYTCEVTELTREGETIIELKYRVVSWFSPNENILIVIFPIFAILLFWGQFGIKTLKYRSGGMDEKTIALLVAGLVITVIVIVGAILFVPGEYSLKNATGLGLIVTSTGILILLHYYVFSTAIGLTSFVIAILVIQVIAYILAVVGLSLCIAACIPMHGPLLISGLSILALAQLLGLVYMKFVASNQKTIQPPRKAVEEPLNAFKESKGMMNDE

Kd (CD47 ECD [1]): 220 nM | Kd (CD47 ECD [2]): 220 nM
B1: SIRPα (variant 129_IgV, GST fusion) ECD (protein)
chain: KELKVTQPEKSVSVAAGDSTVLNCTLTSLLPVGPIRWYRGVGPSRLLIYSFAGEYVPRIRNVSDTTKRNNMDFSIRISNVTPADAGIYYCVKFQKGSSEPDTEIQSGGGTEVYVLAKPSPPEVSGPADRGIPDQKVNFTCKSHGFSPRNITLKWFKDGQELHPLETTVNPSGKNVSYNISSTVRVVLNSMDVNSKVICEVAHITLDRSPLRGIANLSNFIRVSPTVKVTQQSPTSMNQVNLTCRAERFYPEDLQLIWLENGNVSRNDTPKNLTKNTDGTYNYTSLFLVNSSAHREDVVFTCQVKHDQQPAITRNHTVLGFAHSSDQGSMQTFPDNNATHNWN
